This passage reports Q2 (% of cells displaying the parental scFv that bind antigen in presence of the competing scFv-Fc) results from US20230167165A1.

The target in this assay is monomeric human protein of therapeutic interest (antigen of Examples 1-7) (human). Nature of the assay: competition flow cytometry; control scFv-Fc supernatant preincubated 15 min with 10 nM labeled antigen, then yeast displaying parental scFv added. For orientation: A flow cytometer gives signals particle by particle.

With unrelated scFv-Fc (control) (Fc fusion), the Q2 (% of cells displaying the parental scFv that bind antigen in presence of the competing scFv-Fc) came to 69.9%.
